# B1: 단일 클론 항체 AT2F7 (antibody, V domains shown)
# VH: EVKLVESGGGLVKPGGSLKLSCAASGFTFSSYTMSWVRQTPEKRLEWVATISSGGSYTYYPDSVKGRFTISRDNAKNTLYLQMSSLKSEDTAMYYCTRDLYDGYFYYAMDYWGQGTSVTVSS
# VL: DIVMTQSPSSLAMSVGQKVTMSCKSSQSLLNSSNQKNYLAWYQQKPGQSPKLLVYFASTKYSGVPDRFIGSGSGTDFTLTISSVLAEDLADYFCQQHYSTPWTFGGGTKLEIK
# Target: 재조합 MERS-CoV S1-RBD 단백질 (MERS-CoV EMC/2012, UniProt K9N5Q8 358-606)
# Experiment: ELISA screening of hybridoma supernatants on RBD antigen
binder,measurement,value
B1,binding result,binds

# Reference: patent publication KR20190044006A (dated 2019)
